Measurements taken from patent US20210388087A1 (Chugai, published 2021).

T1: Human CD3eg linker (human)
T1 construct: Single chain: epsilon and gamma subunits of human CD3 joined by a 29-mer linker, Flag-tag at the C-terminus; also called recombinant human CD3
T1 chain: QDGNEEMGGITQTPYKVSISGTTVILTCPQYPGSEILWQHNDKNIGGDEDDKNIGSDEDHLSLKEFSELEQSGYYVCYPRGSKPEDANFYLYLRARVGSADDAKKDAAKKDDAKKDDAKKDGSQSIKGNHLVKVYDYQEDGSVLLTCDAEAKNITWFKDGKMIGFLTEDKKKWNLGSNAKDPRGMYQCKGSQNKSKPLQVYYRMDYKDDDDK


Biological target: T1, Human CD3eg linker
Experiment: Biacore SPR, vs template H183/L072

| Binder | fold change of affinity |
| --- | --- |
| H183/L072 VH F29E (antibody, name in Kabat numbering, V domains shown) VH: QVQLVESGGGLVQPGRSLRLSCAASGFTESNAWMHWVRQAPGKGLEWVAQIKDKGNAYAAYYAPSVKGRFTISRDDSKNSIYLQMNSLKTEDTAVYYCHYVHYASASTVLPAFGVDAWGQGTTVTVSS VL: DIVMTQSPLSLPVTPGEPASISCQASQELVHMNRNTYLHWYQQKPGQAPRLLIYKVSNRFPGVPDRFSGSGSGTDFTLKISRVEAEDVGVYYCAQGTSVPFTFGQGTKLEIK | 0.1 fold |
| H183/L072 VH F29I (antibody, name in Kabat numbering, V domains shown) VH: QVQLVESGGGLVQPGRSLRLSCAASGFTISNAWMHWVRQAPGKGLEWVAQIKDKGNAYAAYYAPSVKGRFTISRDDSKNSIYLQMNSLKTEDTAVYYCHYVHYASASTVLPAFGVDAWGQGTTVTVSS VL: DIVMTQSPLSLPVTPGEPASISCQASQELVHMNRNTYLHWYQQKPGQAPRLLIYKVSNRFPGVPDRFSGSGSGTDFTLKISRVEAEDVGVYYCAQGTSVPFTFGQGTKLEIK | 0.3 fold |
| H183/L072 VH F29P (antibody, name in Kabat numbering, V domains shown) VH: QVQLVESGGGLVQPGRSLRLSCAASGFTPSNAWMHWVRQAPGKGLEWVAQIKDKGNAYAAYYAPSVKGRFTISRDDSKNSIYLQMNSLKTEDTAVYYCHYVHYASASTVLPAFGVDAWGQGTTVTVSS VL: DIVMTQSPLSLPVTPGEPASISCQASQELVHMNRNTYLHWYQQKPGQAPRLLIYKVSNRFPGVPDRFSGSGSGTDFTLKISRVEAEDVGVYYCAQGTSVPFTFGQGTKLEIK | 0.2 fold |
| H183/L072 VH F29M (antibody, name in Kabat numbering, V domains shown) VH: QVQLVESGGGLVQPGRSLRLSCAASGFTMSNAWMHWVRQAPGKGLEWVAQIKDKGNAYAAYYAPSVKGRFTISRDDSKNSIYLQMNSLKTEDTAVYYCHYVHYASASTVLPAFGVDAWGQGTTVTVSS VL: DIVMTQSPLSLPVTPGEPASISCQASQELVHMNRNTYLHWYQQKPGQAPRLLIYKVSNRFPGVPDRFSGSGSGTDFTLKISRVEAEDVGVYYCAQGTSVPFTFGQGTKLEIK | 0.4 fold |
| H183/L072 VH F29G (antibody, name in Kabat numbering, V domains shown) VH: QVQLVESGGGLVQPGRSLRLSCAASGFTGSNAWMHWVRQAPGKGLEWVAQIKDKGNAYAAYYAPSVKGRFTISRDDSKNSIYLQMNSLKTEDTAVYYCHYVHYASASTVLPAFGVDAWGQGTTVTVSS VL: DIVMTQSPLSLPVTPGEPASISCQASQELVHMNRNTYLHWYQQKPGQAPRLLIYKVSNRFPGVPDRFSGSGSGTDFTLKISRVEAEDVGVYYCAQGTSVPFTFGQGTKLEIK | 0 fold |
| H183/L072 VH F29K (antibody, name in Kabat numbering, V domains shown) VH: QVQLVESGGGLVQPGRSLRLSCAASGFTKSNAWMHWVRQAPGKGLEWVAQIKDKGNAYAAYYAPSVKGRFTISRDDSKNSIYLQMNSLKTEDTAVYYCHYVHYASASTVLPAFGVDAWGQGTTVTVSS VL: DIVMTQSPLSLPVTPGEPASISCQASQELVHMNRNTYLHWYQQKPGQAPRLLIYKVSNRFPGVPDRFSGSGSGTDFTLKISRVEAEDVGVYYCAQGTSVPFTFGQGTKLEIK | 0.1 fold |
| H183/L072 VH F29N (antibody, name in Kabat numbering, V domains shown) VH: QVQLVESGGGLVQPGRSLRLSCAASGFTNSNAWMHWVRQAPGKGLEWVAQIKDKGNAYAAYYAPSVKGRFTISRDDSKNSIYLQMNSLKTEDTAVYYCHYVHYASASTVLPAFGVDAWGQGTTVTVSS VL: DIVMTQSPLSLPVTPGEPASISCQASQELVHMNRNTYLHWYQQKPGQAPRLLIYKVSNRFPGVPDRFSGSGSGTDFTLKISRVEAEDVGVYYCAQGTSVPFTFGQGTKLEIK | 0 fold |
| H183/L072 VH F29Q (antibody, name in Kabat numbering, V domains shown) VH: QVQLVESGGGLVQPGRSLRLSCAASGFTQSNAWMHWVRQAPGKGLEWVAQIKDKGNAYAAYYAPSVKGRFTISRDDSKNSIYLQMNSLKTEDTAVYYCHYVHYASASTVLPAFGVDAWGQGTTVTVSS VL: DIVMTQSPLSLPVTPGEPASISCQASQELVHMNRNTYLHWYQQKPGQAPRLLIYKVSNRFPGVPDRFSGSGSGTDFTLKISRVEAEDVGVYYCAQGTSVPFTFGQGTKLEIK | 0.2 fold |
| H183/L072 VH F29L (antibody, name in Kabat numbering, V domains shown) VH: QVQLVESGGGLVQPGRSLRLSCAASGFTLSNAWMHWVRQAPGKGLEWVAQIKDKGNAYAAYYAPSVKGRFTISRDDSKNSIYLQMNSLKTEDTAVYYCHYVHYASASTVLPAFGVDAWGQGTTVTVSS VL: DIVMTQSPLSLPVTPGEPASISCQASQELVHMNRNTYLHWYQQKPGQAPRLLIYKVSNRFPGVPDRFSGSGSGTDFTLKISRVEAEDVGVYYCAQGTSVPFTFGQGTKLEIK | 0.4 fold |
| H183/L072 VH F29R (antibody, name in Kabat numbering, V domains shown) VH: QVQLVESGGGLVQPGRSLRLSCAASGFTRSNAWMHWVRQAPGKGLEWVAQIKDKGNAYAAYYAPSVKGRFTISRDDSKNSIYLQMNSLKTEDTAVYYCHYVHYASASTVLPAFGVDAWGQGTTVTVSS VL: DIVMTQSPLSLPVTPGEPASISCQASQELVHMNRNTYLHWYQQKPGQAPRLLIYKVSNRFPGVPDRFSGSGSGTDFTLKISRVEAEDVGVYYCAQGTSVPFTFGQGTKLEIK | 0 fold |
| H183/L072 VH F29H (antibody, name in Kabat numbering, V domains shown) VH: QVQLVESGGGLVQPGRSLRLSCAASGFTHSNAWMHWVRQAPGKGLEWVAQIKDKGNAYAAYYAPSVKGRFTISRDDSKNSIYLQMNSLKTEDTAVYYCHYVHYASASTVLPAFGVDAWGQGTTVTVSS VL: DIVMTQSPLSLPVTPGEPASISCQASQELVHMNRNTYLHWYQQKPGQAPRLLIYKVSNRFPGVPDRFSGSGSGTDFTLKISRVEAEDVGVYYCAQGTSVPFTFGQGTKLEIK | 0 fold |
| H183/L072 VH F29S (antibody, name in Kabat numbering, V domains shown) VH: QVQLVESGGGLVQPGRSLRLSCAASGFTSSNAWMHWVRQAPGKGLEWVAQIKDKGNAYAAYYAPSVKGRFTISRDDSKNSIYLQMNSLKTEDTAVYYCHYVHYASASTVLPAFGVDAWGQGTTVTVSS VL: DIVMTQSPLSLPVTPGEPASISCQASQELVHMNRNTYLHWYQQKPGQAPRLLIYKVSNRFPGVPDRFSGSGSGTDFTLKISRVEAEDVGVYYCAQGTSVPFTFGQGTKLEIK | 0.1 fold |

Other lines, results leading:

| fold change of affinity | Binder |
| --- | --- |
| 0.5 fold | H183/L072 VH F29W (antibody, name in Kabat numbering, V domains shown) VH: QVQLVESGGGLVQPGRSLRLSCAASGFTWSNAWMHWVRQAPGKGLEWVAQIKDKGNAYAAYYAPSVKGRFTISRDDSKNSIYLQMNSLKTEDTAVYYCHYVHYASASTVLPAFGVDAWGQGTTVTVSS VL: DIVMTQSPLSLPVTPGEPASISCQASQELVHMNRNTYLHWYQQKPGQAPRLLIYKVSNRFPGVPDRFSGSGSGTDFTLKISRVEAEDVGVYYCAQGTSVPFTFGQGTKLEIK |
| 1.2 fold | H183/L072 VH F100gI (antibody, name in Kabat numbering, V domains shown) VH: QVQLVESGGGLVQPGRSLRLSCAASGFTFSNAWMHWVRQAPGKGLEWVAQIKDKGNAYAAYYAPSVKGRFTISRDDSKNSIYLQMNSLKTEDTAVYYCHYVHYASASTVLPAIGVDAWGQGTTVTVSS VL: DIVMTQSPLSLPVTPGEPASISCQASQELVHMNRNTYLHWYQQKPGQAPRLLIYKVSNRFPGVPDRFSGSGSGTDFTLKISRVEAEDVGVYYCAQGTSVPFTFGQGTKLEIK |
| 1.3 fold | H183/L072 VH F100gL (antibody, name in Kabat numbering, V domains shown) VH: QVQLVESGGGLVQPGRSLRLSCAASGFTFSNAWMHWVRQAPGKGLEWVAQIKDKGNAYAAYYAPSVKGRFTISRDDSKNSIYLQMNSLKTEDTAVYYCHYVHYASASTVLPALGVDAWGQGTTVTVSS VL: DIVMTQSPLSLPVTPGEPASISCQASQELVHMNRNTYLHWYQQKPGQAPRLLIYKVSNRFPGVPDRFSGSGSGTDFTLKISRVEAEDVGVYYCAQGTSVPFTFGQGTKLEIK |
| 0.4 fold | H183/L072 VH F29Y (antibody, name in Kabat numbering, V domains shown) VH: QVQLVESGGGLVQPGRSLRLSCAASGFTYSNAWMHWVRQAPGKGLEWVAQIKDKGNAYAAYYAPSVKGRFTISRDDSKNSIYLQMNSLKTEDTAVYYCHYVHYASASTVLPAFGVDAWGQGTTVTVSS VL: DIVMTQSPLSLPVTPGEPASISCQASQELVHMNRNTYLHWYQQKPGQAPRLLIYKVSNRFPGVPDRFSGSGSGTDFTLKISRVEAEDVGVYYCAQGTSVPFTFGQGTKLEIK |
| 1.4 fold | H183/L072 VH F100gM (antibody, name in Kabat numbering, V domains shown) VH: QVQLVESGGGLVQPGRSLRLSCAASGFTFSNAWMHWVRQAPGKGLEWVAQIKDKGNAYAAYYAPSVKGRFTISRDDSKNSIYLQMNSLKTEDTAVYYCHYVHYASASTVLPAMGVDAWGQGTTVTVSS VL: DIVMTQSPLSLPVTPGEPASISCQASQELVHMNRNTYLHWYQQKPGQAPRLLIYKVSNRFPGVPDRFSGSGSGTDFTLKISRVEAEDVGVYYCAQGTSVPFTFGQGTKLEIK |
| 0 fold | H183/L072 VH F29V (antibody, name in Kabat numbering, V domains shown) VH: QVQLVESGGGLVQPGRSLRLSCAASGFTVSNAWMHWVRQAPGKGLEWVAQIKDKGNAYAAYYAPSVKGRFTISRDDSKNSIYLQMNSLKTEDTAVYYCHYVHYASASTVLPAFGVDAWGQGTTVTVSS VL: DIVMTQSPLSLPVTPGEPASISCQASQELVHMNRNTYLHWYQQKPGQAPRLLIYKVSNRFPGVPDRFSGSGSGTDFTLKISRVEAEDVGVYYCAQGTSVPFTFGQGTKLEIK |
| 0.2 fold | H183/L072 VH F29T (antibody, name in Kabat numbering, V domains shown) VH: QVQLVESGGGLVQPGRSLRLSCAASGFTTSNAWMHWVRQAPGKGLEWVAQIKDKGNAYAAYYAPSVKGRFTISRDDSKNSIYLQMNSLKTEDTAVYYCHYVHYASASTVLPAFGVDAWGQGTTVTVSS VL: DIVMTQSPLSLPVTPGEPASISCQASQELVHMNRNTYLHWYQQKPGQAPRLLIYKVSNRFPGVPDRFSGSGSGTDFTLKISRVEAEDVGVYYCAQGTSVPFTFGQGTKLEIK |
| 1.7 fold | H183/L072 VH F100gA (antibody, name in Kabat numbering, V domains shown) VH: QVQLVESGGGLVQPGRSLRLSCAASGFTFSNAWMHWVRQAPGKGLEWVAQIKDKGNAYAAYYAPSVKGRFTISRDDSKNSIYLQMNSLKTEDTAVYYCHYVHYASASTVLPAAGVDAWGQGTTVTVSS VL: DIVMTQSPLSLPVTPGEPASISCQASQELVHMNRNTYLHWYQQKPGQAPRLLIYKVSNRFPGVPDRFSGSGSGTDFTLKISRVEAEDVGVYYCAQGTSVPFTFGQGTKLEIK |
